Publication PMC10531346, “Structural Similarities and Overlapping Activities among Dihydroflavonol 4-Reductase, Flavanone 4-Reductase, and Anthocyanidin Reductase Offer Metabolic Flexibility in the Flavonoid Pathway” (International Journal of Molecular Sciences, 2023)
Like-named read-outs stand apart in the source and are kept apart here.

What was measured:
SbFNR2 = SbFNR2 activity assay (dihydroflavonols, flavanones, anthocyanidins); type: biochemical, Sorghum bicolor; conditions: anthocyanidin reduction
PvDFRa [1] = molecular target: T1, PvDFRa (Panicum virgatum, UniProt A0A8T0SQV2); test: PvDFRa activity against anthocyanidins (ANR activity); type: biochemical; conditions: anthocyanidin reduction
Method: (§1) To measure any overlapping specificity among FNR, DFR, and ANR for anthocyanidins, their activity against cyanidin, pelargonidin, and delphinidin were assayed.
(§2) LC-MS was used to analyze the various flavonoids using a Waters Xevo TQ-MS mass spectrometer interfaced with a Waters Acquity UPLC. […] The chromatographic conditions used were based on. The mobile phase used was a binary gradient of water with 0.1% (v/v) formic acid (Solvent A) and methanol with 0.1% formic acid (Solvent B). The solvent flow rate was 0.2 mL min^-1. and the initial solvent composition was 20% B/80% A and was constant for the first minute following sample injection. Gradient elution was accomplished by increasing the ratio of solvent B to solvent A from 20:80 to 65:35 over 10 min. using a linear gradient, and then increased to 100:0 over the next 4 min. The composition was maintained at 100% B for 5 min., returned to 80%A/20%B over the next 3 min., and held at that ratio for the next 3 min. […]
(§3) Appropriate daughter ions to be used for multiple reaction monitoring (MRM) of (-)-epicatechin were identified by infusing standard and recording spectra. The optimum cone voltage and collision energy of epicatechin were also determined in these infusion experiments. […]

SbDFR3 = SbDFR3 (Sorghum bicolor, UniProt C5XVF8); test: SbDFR3 activity against anthocyanidins (ANR activity); type: biochemical; conditions: anthocyanidin reduction
Method: as §1, §2, §3

SbFNR1 [2] = molecular target: T2, SbFNR1 (Sorghum bicolor, UniProt C5YGL7); test: SbFNR1 activity assay (dihydroflavonols, flavanones, anthocyanidins); type: biochemical; conditions: anthocyanidin reduction
PvDFRa [3] = molecular target: T1, PvDFRa; type: biochemical
Method: The referenced Vmax and Km values were used to make a nonlinear regression. […] Five µL of the reaction was injected into a reversed-phase HPLC column XBridge Peptide BEH C18 (Waters, Milford, MA, USA). Acetonitrile:water was used as the mobile phase, using a gradient in the concentration of acetonitrile from 5% (v/v) to 100%.

PvDFRa WT = PvDFRa WT (Panicum virgatum, UniProt A0A8T0SQV2); test: Enzyme kinetic assay, wild-type PvDFRa; type: biochemical; conditions: NADH utilized instead of NADPH
Method: Kinetic Assays of PvDFRa, SbDFR3, mutant PvDFRa, and SbFNRs: DFR was purified to the same purity as used in crystallization. Enzymatic assay followed the methodology previously reported with small changes. A solution of 0.1 M potassium phosphate at pH 7.0 was utilized, and substrate concentration was varied from 5 µM to 800 µM. The reaction was initiated with 0.05 mg enzyme in a total reaction volume of 200 µL. […] The reaction proceeded for 15 min. at 25 °C and was terminated by the addition of 600 µL 95:5 (v/v) n-butanol:HCl. […] The reactions were centrifuged for 15 min. at 14,000× g and the supernatant was used to determine product concentrations with a GENESYS™ 10S UV-Vis Spectrophotometer (Thermo Scientific, Waltham, MA, USA). The absorbances of cyanidin delphinidin and pelargonidin were measured at 550, 550, and 528 nm, respectively. The concentrations were determined based on calibrations with reference compounds (Figure S12). […] Data analysis was conducted utilizing GraphPad Prism 8.0.2 using linear regression to model the appropriate model. Error in each data point is shown utilizing the standard deviation.

PvDFRa [4] = molecular target: T1, PvDFRa; test: Isothermal titration calorimetry, PvDFRa; type: binding; conditions: ITC
Method: In order to obtain thermodynamic parameters for the association, isothermal titration calorimetry (ITC) for PvDFRa was performed (Figure S8, Table 2).
Isothermal Titration Calorimetry: Purified PvDFR was dialyzed to a buffer containing 50 mM Bis-Tris, 50 mM Tricine (pH 6.5), 200 mM NaCl and 2.5% (v/v) glycerol. Substrates were dissolved in the same buffer used for enzyme dialysis. Analysis was conducted utilizing a Microcal ITC 200 (Malvern). […] A total of 22 injections were made, each with a volume of 2 uL. Data analysis was conducted utilizing Origin Software 7 and modeled to the appropriate nonlinear regression.

SbFNR1 [5] = molecular target: T2, SbFNR1; test: Isothermal titration calorimetry, SbFNR1; type: binding; conditions: ITC
[6] = system: O=C1c2c(O)cc(O)cc2O[C@H](c2ccc(O)cc2)[C@H]1O; test: purified protein, by the assay type; conditions: other: NADPH 2 mM
[7] = system: O=C1c2c(O)cc(O)cc2OC(c2ccc(O)c(O)c2)[C@H]1O; test: purified protein, by the assay type; conditions: other: NADPH 2 mM
[8] = system: O=C1c2c(O)cc(O)cc2O[C@H](c2cc(O)c(O)c(O)c2)[C@H]1O; test: purified protein, by the assay type; conditions: other: NADPH 2 mM
[9] = system: O=C1C[C@@H](c2ccc(O)cc2)Oc2cc(O)cc(O)c21; test: purified protein, by the assay type; conditions: other: NADPH 2 mM

Compound: Oc1ccc(-c2[o+]c3cc(O)cc(O)c3cc2O)cc1 [pelargonidin]
- efficiency relative to the activity of SbANR (SbFNR2): 42.7%
- activity as % of the activity of SbANR (PvDFRa [1]): 13.8%
- activity as % of the activity of SbANR (SbDFR3): 2.3%
- efficiency relative to the activity of SbANR (SbFNR1 [2]): 2.1%

Compound: O=c1c(O)c(-c2ccc(O)c(O)c2)oc2cc(O)cc(O)c12 [quercetin]
- substrate of PvDFRa or not (PvDFRa [3]; 500 µM quercetin, 2 mM NADPH, 30 min, HPLC): not a substrate
- type of inhibition of PvDFRa (PvDFRa [3]; DHM as substrate): noncompetitive inhibition
- Vmax (PvDFRa [3]; DHM as substrate, 75 μM quercetin): 4.193 min⁻¹
- Vmax (PvDFRa [3]; DHM as substrate, 150 μM quercetin): 3.545 min⁻¹

Compound: NADH
- enzyme efficiency with NADH relative to NADPH (PvDFRa WT): 60.55%

Compound: NADP^+
- NADP^+-binding affinity relative to affinity for DHQ (PvDFRa [4]): roughly 100 times
- ∆H (PvDFRa [4]; 298 K): -9.41 ± 0.15 kcal/mol
- ∆S (PvDFRa [4]; 298 K): −0.226 Cal mol^−1 K^−1
- ∆H (SbFNR1 [5]): -1.12 ± 0.72 kcal/mol
- ∆S (SbFNR1 [5]): −15.4 Cal mol^−1 K^−1

Compound: PvDFRa Q242A (Panicum virgatum; Q242A)
- Km ([6]; pH 7.0): 74.59 ± 62.70 µM
- kcat ([6]; pH 7.0): 0.00783 s⁻¹
- kcat/Km ([6]; pH 7.0): 105 M⁻¹ s⁻¹
- Km ([7]; pH 7.0): 156.8 ± 121.41 µM
- kcat ([7]; pH 7.0): 0.0428 s⁻¹
- kcat/Km ([7]; pH 7.0): 273 M⁻¹ s⁻¹
- Km ([8]; pH 7.0): 119.2 ± 87.86 µM
- kcat ([8]; pH 7.0): 0.0379 s⁻¹
- kcat/Km ([8]; pH 7.0): 318 M⁻¹ s⁻¹

Compound: PvDFRa T143S (Panicum virgatum; T143S)
- Km ([6]; pH 7.0): 137.7 ± 36.00 µM
- kcat ([6]; pH 7.0): 0.00956 s⁻¹
- kcat/Km ([6]; pH 7.0): 69.3 M⁻¹ s⁻¹
- Km ([7]; pH 7.0): 19.04 ± 11.21 µM
- kcat ([7]; pH 7.0): 0.0293 s⁻¹
- kcat/Km ([7]; pH 7.0): 1540 M⁻¹ s⁻¹
- Km ([8]; pH 7.0): 7.409 ± 0.2465 µM
- kcat ([8]; pH 7.0): 0.0176 s⁻¹
- kcat/Km ([8]; pH 7.0): 2380 M⁻¹ s⁻¹

Compound: PvDFRa WT (Panicum virgatum)
- kcat ([6]; pH 7.0, 25 °C, 25.0 °C): 0.0121 s⁻¹
- kcat/Km ([6]; pH 7.0, 25 °C, 25.0 °C): 63.2 M⁻¹ s⁻¹
- Km ([7]; pH 7.0, 25 °C, 25.0 °C): 128.6 ± 14.3 µM
- kcat ([7]; pH 7.0, 25 °C, 25.0 °C): 0.0559 s⁻¹
- kcat/Km ([7]; pH 7.0, 25 °C, 25.0 °C): 435 M⁻¹ s⁻¹
- Km ([8]; pH 7.0, 25 °C, 25.0 °C): 150.0 ± 56.9 µM
- kcat ([8]; pH 7.0, 25 °C, 25.0 °C): 0.0377 s⁻¹
- kcat/Km ([8]; pH 7.0, 25 °C, 25.0 °C): 251 M⁻¹ s⁻¹
- Km ([9]; pH 7.0, 25 °C, 25.0 °C): 407.6 ± 223.6 µM
- kcat ([9]; pH 7.0, 25 °C, 25.0 °C): 0.0592 s⁻¹
- kcat/Km ([9]; pH 7.0, 25 °C, 25.0 °C): 145 M⁻¹ s⁻¹

Compound: SbDFR3 (Sorghum bicolor)
- Km ([7]; pH 7.0): 166.4 ± 28.8 µM
- kcat ([7]; pH 7.0): 0.0633 s⁻¹
- kcat/Km ([7]; pH 7.0): 380 M⁻¹ s⁻¹
- Km ([8]; pH 7.0): 118.5 ± 0.2885 µM
- kcat ([8]; pH 7.0): 0.0773 s⁻¹
- kcat/Km ([8]; pH 7.0): 653 M⁻¹ s⁻¹
- Km ([9]; pH 7.0): 118.2 ± 14.92 µM
- kcat ([9]; pH 7.0): 0.0347 ± 0.00145 s⁻¹
- kcat/Km ([9]; pH 7.0): 294 M⁻¹ s⁻¹
